Measurements as given in publication PMC8364239 (The Plant Cell, 2021).
Numbering of substitutions follows the chain as printed. In names and notes the source's numbering stands.

T1: His6-tagged SEC5B (Arabidopsis thaliana, UniProt F4HWE6 1-1090)
T1 sequence: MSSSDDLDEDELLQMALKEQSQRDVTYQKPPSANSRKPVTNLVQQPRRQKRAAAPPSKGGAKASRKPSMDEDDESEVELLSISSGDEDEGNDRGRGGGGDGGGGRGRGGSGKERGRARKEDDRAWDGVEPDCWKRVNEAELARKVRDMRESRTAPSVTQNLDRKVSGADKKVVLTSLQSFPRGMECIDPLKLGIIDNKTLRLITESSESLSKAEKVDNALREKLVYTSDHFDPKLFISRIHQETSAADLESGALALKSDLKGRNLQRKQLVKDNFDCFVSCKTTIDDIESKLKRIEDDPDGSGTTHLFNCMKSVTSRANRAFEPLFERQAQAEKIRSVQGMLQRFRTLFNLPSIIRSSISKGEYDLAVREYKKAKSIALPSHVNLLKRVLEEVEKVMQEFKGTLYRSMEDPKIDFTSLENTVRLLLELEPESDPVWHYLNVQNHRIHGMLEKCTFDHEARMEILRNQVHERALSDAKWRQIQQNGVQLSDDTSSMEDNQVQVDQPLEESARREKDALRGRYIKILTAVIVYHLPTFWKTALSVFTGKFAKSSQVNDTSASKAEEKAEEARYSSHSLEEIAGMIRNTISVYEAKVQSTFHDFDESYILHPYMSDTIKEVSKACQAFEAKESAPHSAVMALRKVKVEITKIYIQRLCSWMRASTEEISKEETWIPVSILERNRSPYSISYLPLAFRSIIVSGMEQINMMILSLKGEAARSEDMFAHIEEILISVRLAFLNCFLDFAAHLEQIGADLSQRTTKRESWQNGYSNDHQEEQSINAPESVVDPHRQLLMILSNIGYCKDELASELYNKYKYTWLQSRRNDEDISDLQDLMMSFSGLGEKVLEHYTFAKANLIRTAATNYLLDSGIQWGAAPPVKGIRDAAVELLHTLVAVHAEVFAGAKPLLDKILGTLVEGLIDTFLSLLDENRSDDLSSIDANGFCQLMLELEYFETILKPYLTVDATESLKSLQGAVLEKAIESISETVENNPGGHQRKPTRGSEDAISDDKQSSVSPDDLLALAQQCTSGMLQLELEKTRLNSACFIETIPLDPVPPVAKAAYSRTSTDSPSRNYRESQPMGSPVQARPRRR

T2: His6-tagged SEC15B (Arabidopsis thaliana, UniProt F4JHH5 1-787)
T2 sequence: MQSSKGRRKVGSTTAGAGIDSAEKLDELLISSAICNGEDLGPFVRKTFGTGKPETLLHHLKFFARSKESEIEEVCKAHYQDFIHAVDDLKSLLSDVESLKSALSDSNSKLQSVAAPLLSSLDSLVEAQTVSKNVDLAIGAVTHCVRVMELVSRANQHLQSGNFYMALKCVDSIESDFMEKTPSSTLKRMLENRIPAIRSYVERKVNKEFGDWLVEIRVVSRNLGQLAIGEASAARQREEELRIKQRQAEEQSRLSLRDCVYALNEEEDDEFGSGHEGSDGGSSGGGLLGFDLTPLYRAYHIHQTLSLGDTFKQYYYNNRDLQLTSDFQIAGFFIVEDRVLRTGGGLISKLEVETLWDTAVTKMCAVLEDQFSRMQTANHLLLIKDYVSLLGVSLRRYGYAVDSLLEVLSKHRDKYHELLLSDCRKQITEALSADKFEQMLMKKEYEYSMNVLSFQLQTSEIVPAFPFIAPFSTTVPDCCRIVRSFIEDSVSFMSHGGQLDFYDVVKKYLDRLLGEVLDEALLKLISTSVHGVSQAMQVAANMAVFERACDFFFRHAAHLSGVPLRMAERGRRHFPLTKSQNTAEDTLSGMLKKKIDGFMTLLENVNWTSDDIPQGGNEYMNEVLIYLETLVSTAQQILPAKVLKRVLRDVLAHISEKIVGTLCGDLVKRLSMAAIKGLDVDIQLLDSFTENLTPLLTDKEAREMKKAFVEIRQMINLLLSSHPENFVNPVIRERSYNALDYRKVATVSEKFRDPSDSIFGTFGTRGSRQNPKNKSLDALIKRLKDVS

B1: GST-tagged myosin XIK GTD (wild type) (domain or fragment)
chain: ISPTSRTMATRSKTMLLPRTPENGNYLNGGTKTTPDMTLAVREPESEEKPQKHLNEKQQENQDLLVKCISQNLGYNGDKPVAACVIYKCLLHWRSFEVERTSVFDRIIQTIATAIEVPDNNEVLAYWLSNSATLLLLLQRTLKATGAASLTPQRRRTTSASLFGRMSQGLRGSPQSAGLSFLNRQGLTKLDDLRQVEAKYPALLFKQQLTAFLEKIYGMIRDNLKKEISPLLGLCIQAPRTSRASLVKGRAQANAVAQQALIAHWQSIRKSLNSYLNLMKANNAPPFLVRKVFTQIFSFINVQLFNSLLLRRECCSFSNGEYVKAGLAELEQWCIEATDEYAGSAWDELRHIRQAVGFLVIHQKPKKTLDEITRELCPVLSIQQLYRISTMYWDDKYGTHSVSSDVIANMRVMMTEDSNNAVSSSFLLDDDSSIPFTVEDISKSMQQVDVNDIEPPQLIRENSGFGFLLTRKEGSTS
B2: GST-XIK GTD K1103A (domain or fragment)
chain: B1 chain with K49A

Assays:
His6-tagged SEC5B = target: T1, His6-tagged SEC5B; test: pull-down
His6-tagged SEC15B = target: T2, His6-tagged SEC15B; test: pull-down

Row | Binder | binding result (His6-tagged SEC5B) | binding result (His6-tagged SEC15B)
1 | B1 | binds | binds
2 | B2 | binds | 
